Assay results: the Immune Epitope Database (IEDB)

What was measured:
Assay in all cases: IEDB peptide-MHC binding, purified MHC/competitive/radioactivity; ≥ and ≤ were set here for values at or beyond the usual limits of such assays
Conditions in all cases: source organism: Homo sapiens
[1] = target: HLA-A*11:01
[2] = target: HLA-A*03:01
[3] = target: HLA-A*02:01
[4] = target: HLA-A*33:01
[5] = target: HLA-A*31:01
[6] = target: HLA-A*30:01
[7] = target: HLA-B*08:01
[8] = target: HLA-B*27:05
[9] = target: HLA-A*01:01
[10] = target: HLA-A*68:01

Sequence | IC50 [1] [µM] | IC50 [2] [µM] | IC50 [3] [µM] | IC50 [4] [µM] | IC50 [5] [µM] | IC50 [6] [µM] | IC50 [7] [µM] | IC50 [8] [µM] | IC50 [9] [µM] | IC50 [10] [µM]
KIPVAIKTS | ≥ 20 | ≥ 20 | ≥ 20 |  |  |  |  |  |  | 
KIPVAIKTSP | ≥ 20 | ≥ 20 | ≥ 20 |  |  |  |  |  |  | 
KIPVAIKTSPK | 0.862 | 0.253 | ≥ 20 |  |  |  |  |  |  | 
KITDFGLAK | 0.133 |  |  |  |  |  |  |  |  | 
KTSPKANK | 1.69 | 0.679 | ≥ 20 |  |  |  |  |  |  | 
KTSPKANKEI | ≥ 20 | ≥ 20 | ≥ 20 |  |  |  |  |  |  | 
KTSPKANKEIL | ≥ 20 | ≥ 20 | ≥ 20 |  |  |  |  |  |  | 
KVKIPVAIKT | 10.2 | 0.397 | ≥ 20 |  |  |  |  |  |  | 
KVKIPVAIKTS | 11.4 | 0.508 | ≥ 20 |  |  |  |  |  |  | 
LAKLLGAEEK | ≥ 50 | 43.5 | ≥ 50 | 20.3 | 29.9 | 37.3 | ≥ 50 | ≥ 50 | ≥ 50 | 2.01
PVAIKTSP | ≥ 20 | ≥ 20 | ≥ 20 |  |  |  |  |  |  | 
PVAIKTSPK | 0.782 | 0.529 | ≥ 20 |  |  |  |  |  |  | 
PVAIKTSPKA | 11.6 | 9.32 | ≥ 20 |  |  |  |  |  |  | 
PVAIKTSPKAN | 6.43 | 4.5 | ≥ 20 |  |  |  |  |  |  | 
RAKLLGAEEK | 21.7 | 6.56 | ≥ 50 | 35.6 | 0.817 | 1.77 | ≥ 50 | 10.5 | ≥ 50 | 28.9
VAIKTSPK | 1.98 | 3.68 | ≥ 20 |  |  |  |  |  |  | 
VAIKTSPKA | ≥ 20 | ≥ 20 | ≥ 20 |  |  |  |  |  |  | 
VAIKTSPKAN | ≥ 20 | ≥ 20 | ≥ 20 |  |  |  |  |  |  | 
VAIKTSPKANK | 1.63 | 1.85 | ≥ 20 |  |  |  |  |  |  | 
VKIPVAIKT | ≥ 20 | ≥ 20 | ≥ 20 |  |  |  |  |  |  | 
VKIPVAIKTS | ≥ 20 | ≥ 20 | ≥ 20 |  |  |  |  |  |  | 
VKIPVAIKTSP | ≥ 20 | ≥ 20 | ≥ 20 |  |  |  |  |  |  | 
